Like-named read-outs stand apart in the source and are kept apart here.
Legend:
[1] = rat, in vivo, 50 mg/kg
Procedure: (§1) An intracolonic dosing composition containing 50 mg/kg of carrier 9 and 250 μg/kg of interferon in 50% propylene glycol was prepared. Rats were administered the dosing composition by intracolonic instillation.
(§2) Rats were administered, orally and by intracolonic instillation, dosing solutions of 1 mg/kg of interferon and no carrier.

[2] = In vivo interferon delivery (ELISA for human interferon); conditions: 1 mg/kg interferon, no carrier
Procedure: as §1, §2

Compound	Mean peak serum interferon concentration [1]	Mean peak serum interferon concentration ([2]; intracolonic (IC))	Mean peak serum interferon concentration ([2]; oral (PO))
O=C(O)CCCc1ccc(NC(=O)COc2ccccc2)cc1 [Compound 9]	2611±695		
interferon		79±100	1951±1857
